Results reported in the RNAGym collection of RNA variant scans (doi:10.1021/acssynbio.7b00057).

B1: Pistol ribozyme (parent)
chain: GGGUCGUUGUUCCAUAAUCGCGUGGAUAUGGCACGCAAGUUUCUACCGGGCACCGUAAAUGUCCGACUGGAGCCGUUCGGGCGGCUAUAAACAGACCUCAGGCCCGAAGCGUGGCGGCACCUGCCGCCGGUGGUAAAAAAGAUCGGAAGAGCACACGUCU

Variants of: B1
Test: aptazyme ON/OFF ratio, guanine; higher = stronger switching; co-transcriptional cleavage with and without guanine

In order of falling “aptazyme ON/OFF ratio” value:
1. U7C U8G G9C U11A  1.86
2. U7C U8G G9C U10C C13U  1.71
3. U7C U8G G9C U10C C12G C13A  1.43
4. U7C U8G G9A U10G U11G C12U C13A  1.42
5. U7C U8G G9A U10G U11G C12G C13A  1.42
6. U7C U8G G9C U10G C12U  1.4
7. U7C U8G G9C U11C C12G C13A  1.4
8. U7C U8G G9A U10G U11G C13G  1.39
9. U7C U8G G9C U11G C12U C13U  1.37
10. U7C U8G G9C U10G U11C C12A C13U  1.35
11. U7C U8G G9C U10G C12U C13U  1.35
12. U7C U8G G9C U10G U11C C12A C13A  1.31
13. U7C U8G G9C U10G U11A C12A C13A  1.31
14. U7C U8G G9C C12A C13U  1.31
15. U7C U8G G9C U10A U11G C12G C13A  1.31
16. U7C U8G G9C U10G U11C C12G C13A  1.31
17. U7C U8G G9C U10G U11A C13A  1.3
18. U7C U8G G9C U10A U11C C12G C13U  1.3
19. U7C U8G G9C U10A U11A  1.3
20. U7C U8G G9A U11G C12U C13G  1.29
21. U7C U8G G9A U11G C12G C13G  1.27
22. U7C U8G G9A U11G C12U C13U  1.27
23. U7C U8G G9A U11G C12U C13A  1.27
24. U7C U8G G9C U11C C12G C13U  1.27
25. U7C U8G G9C U10G U11C C12U C13A  1.26
26. U7C U8G G9C U10A U11A C12A C13U  1.26
27. U7C U8G G9C U10A U11A C12U  1.26
28. U7C U8G G9C U11A C13U  1.26
29. U7C U8G G9A U10G U11G C12U C13G  1.25
30. U7C U8G G9C U10G U11C C12U C13G  1.25
31. U7C U8G G9C U10G U11C C13A  1.25
32. U7C U8G G9C U10A U11A C12U C13U  1.24
33. U7C U8G G9A U10G U11G C12A C13G  1.24
34. U7C U8G G9C U10G C12U C13A  1.24
35. U7C U8G G9A U10G U11G C12G C13U  1.24
36. U7C U8G G9C U10G U11C C12G C13U  1.24
37. U7C U8G G9C U10G U11A C12G C13A  1.24
38. U7C U8G G9C U10G U11A C12G C13U  1.24
39. U7C U8G G9C U10A U11C C12G C13G  1.24
40. U7C U8G G9C U10A U11C C12G C13A  1.24
41. U7C U8G G9C U10G U11A C12A C13U  1.23
42. U7C U8G G9C U10C U11A C13G  1.23
43. U7C U8G G9A U10G U11G C12U C13U  1.22
44. U7C U8G G9C U10A U11A C12A  1.22
45. U7C U8G G9C U10G U11C C12G C13G  1.22
46. U7C U8G G9C U11G C12U C13G  1.21
47. U7C U8G G9C U10G U11A C12A C13G  1.21
48. U7C U8G G9C U10A U11A C12U C13A  1.21
49. U7C U8G G9C U10A C12U C13A  1.21
50. U7C U8G G9C C12A C13A  1.21
51. U7C U8G G9C U10G U11C C12U C13U  1.21
52. U7C U8G G9A U11G C13A  1.21
53. U7C U8G G9C U10G U11A C12G C13G  1.21
54. U7C U8G G9C U10C U11A C13A  1.21
55. U7C U8G G9C U10C U11A C13U  1.21
56. U7C U8G G9C U11G C12U C13A  1.2
57. U7C U8G G9C U10A U11A C13U  1.2
58. U7C U8G G9C U11G  1.2
59. U7C U8G G9C C12U C13U  1.2
60. U7C U8G G9A U10G U11G C13A  1.2
61. U7C U8G G9A U11A C13A  1.2
62. U7C U8G G9C U10A C12G C13G  1.2
63. U7C U8G G9C U10A C12G C13A  1.2
64. U7C U8G G9C U10G U11A C13G  1.19
65. U7C U8G G9C U10A U11G C13A  1.19
66. U7C U8G G9A U10G U11G C13U  1.19
67. U7C U8G G9A U11A C13U  1.19
68. U7C U8G G9C U11A C12U C13A  1.19
69. U7C U8G G9C U10A C12G C13U  1.19
70. U7C U8G G9A U11A C12U C13A  1.19
71. U7C U8G G9A U11A  1.18
72. U7C U8G G9A U11G  1.18
73. U7C U8G G9C U10A U11G C13U  1.18
74. U7C U8G G9C U11C  1.18
75. U7C U8G G9A U11G C12G C13U  1.18
76. U7C U8G G9C U10A U11G C12G C13U  1.18
77. U7C U8G G9C U10A U11G  1.18
78. U7C U8G G9C U10A U11A C12U C13G  1.17
79. U7C U8G G9C U10C U11A C12G C13G  1.17
80. U7C U8G G9C U11A C13A  1.17
81. U7C U8G G9A U11A C12U C13G  1.17
82. U7C U8G G9C U10G C12G  1.16
83. U7C U8G G9C U10G U11C C12A C13G  1.16
84. U7C U8G G9C U10G U11A C13U  1.16
85. U7C U8G G9C C12U C13A  1.16
86. U7C U8G G9A U11G C12G C13A  1.16
87. U7C U8G G9C U10A U11G C12G C13G  1.16
88. U7C U8G G9C U11A C12U C13U  1.16
89. U7C U8G G9C U10C U11G  1.16
90. U7C U8G G9C U10A U11A C13A  1.15
91. U7C U8G G9C U10A U11A C12A C13G  1.15
92. U7C U8G G9C U10G U11G C12A C13A  1.15
93. U7C U8G G9A U11A C12U C13U  1.15
94. U7C U8G G9C U10A U11A C12G  1.14
95. U7C U8G G9C U10G C12U C13G  1.14
96. U7C U8G G9C U10G U11G C12A C13U  1.14
97. U7C U8G G9C U11A C12G C13G  1.13
98. U7C U8G G9C U10A C12U C13G  1.13
99. U7C U8G G9C U10A U11A C12A C13A  1.13
100. U7C U8G G9A U11G C13U  1.13
101. U7C U8G G9C U11G C12G C13A  1.13
102. U7C U8G G9C U10G U11G C13A  1.13
103. U7C U8G G9A U10G U11G C12A C13U  1.12
104. U7C U8G G9C U10C U11A C12G C13U  1.12
105. U7C U8G G9C U10C U11G C12G C13A  1.12
106. U7C U8G G9C U10A U11C C12U C13G  1.12
107. U7C U8G G9C U11A C12G C13U  1.11
108. U7C U8G G9A U10G U11G C12A C13A  1.11
109. U7C U8G G9C U10A U11C C12U C13A  1.11
110. U7C U8G G9C U10G U11G C13U  1.11
111. U7C U8G G9C U10G U11G C12A C13G  1.11
112. U7C U8G G9A U10G U11C C13A  1.11
113. U7C U8G G9C U11A C12G C13A  1.1
114. U7C U8G G9C U10C U11A C12G C13A  1.1
115. U7C U8G G9C U10C C12A C13G  1.1
116. U7C U8G G9C U11G C12G C13G  1.1
117. U7C U8G G9C U10G U11G C13G  1.1
118. U7C U8G G9C U10C C12G C13U  1.1
119. U7C U8G G9C U10C U11A C12U  1.09
120. U7C U8G G9C C12A C13G  1.09
121. U7C U8G G9C U11A C12U C13G  1.09
122. U7C U8G G9C U10C U11G C12G C13G  1.09
123. U7C U8G G9C U10C U11G C12U C13G  1.09
124. U7C U8G G9C U10A U11C C12U C13U  1.09
125. U7C U8G G9C U11G C12G C13U  1.09
126. U7C U8G G9C U10C C12G C13G  1.09
127. U7C U8G G9C U10C C12U C13U  1.09
128. U7C U8G G9C U10A U11A C13G  1.08
129. U7C U8G G9C U10C U11A C12A  1.08
130. U7C U8G G9C U10C C13G  1.08
131. U7C U8G G9C U11C C12G C13G  1.08
132. U7C U8G G9C U10C C12U C13G  1.08
133. U7C U8G G9C C12U C13G  1.07
134. U7C U8G G9C U10C U11A C12G  1.07
135. U7C U8G G9A U11A C13G  1.07
136. U7C U8G G9C U10C U11G C12U C13A  1.07
137. U7C U8G G9C U10C U11G C12U C13U  1.07
138. U7C U8G G9C U10G U11C C13U  1.07
139. U7C U8G G9C U10A U11C C13A  1.07
140. U7C U8G G9C U10C C12A C13U  1.06
141. U7C U8G G9C U10C C12A C13A  1.06
142. U7C U8G G9C U10C C13A  1.06
143. U7C U8G G9C U11A C13G  1.06
144. U7C U8G G9C U10A C12U C13U  1.05
145. U7C U8G G9C U10C U11G C12G C13U  1.05
146. U7C U8G G9C U10G U11C C13G  1.05
147. U7C U8G G9A U11C C13U  1.05
148. U7C U8G G9C U10C C12U C13A  1.05
149. U7C U8G G9A U11C  1.04
150. U7C U8G G9A U11C C13A  1.04
151. U7C U8G G9C U10C U11C  1.04
152. U7C U8G G9C U10C U11C C12U C13A  1.04
153. U7C U8G G9C U10C U11C C12U C13G  1.04
154. U7C U8G G9C U10A U11C C13G  1.04
155. U7C U8G G9A U10G U11C C13G  1.04
156. U7C U8G G9C U10A U11G C13G  1.03
157. U7C U8G G9A U10G U11G C12G C13G  1.03
158. U7C U8G G9A U11G C13G  1.03
159. U7C U8G G9C U10C U11C C12U C13U  1.03
160. U7C U8G G9C U10C U11C C13G  1.03
161. U7C U8G G9C U10C U11C C13A  1.03
162. U7C U8G G9A U10G U11C C13U  1.03
163. U7C U8G G9C U10A U11C  1.03
164. U7C U8G G9A U11C C13G  1.02
165. U7C U8G G9C U10C U11C C13U  1.02
166. U7C U8G G9C U10A U11C C13U  1.01
167. U7C U8G G9C U10C U11A  0.99
